Source: article PMC6292502 (Nature structural & molecular biology, 2018)

B1: Ndc10 (natural protein)
chain: MRSSILFLLKLMKIMDVQQQQEAMSSEDRFQELVDSLKPRTAHQYKTYYTKYIQWCQLNQIIPTPEDNSVNSVPYKDLPISAELIHWFLLDTLITDDKPGEKREETEDLDEEEENSFKIATLKKIIGSLNFLSKLCKVHENPNANIDTKYLESVTKLHTHWIDSQKAITTNETNNTNTQVLCPPLLKVSLNLWNPETNHLSEKFFKTCSEKLRFLVDFQLRSYLNLSFEERSKIRFGSLKLGKRDRDAIIYHKVTHSAEKKDTPGHHQLLALLPQDCPFICPQTTLAAYLYLRFYGIPSVSKGDGFPNLNADENGSLLQDIPILRGKSLTTYPREETFSNYYTTVFRYCHLPYKRREYFNKCNLVYPTWDEDTFRTFFNEENHGNWLEQPEAFAFPDKIPFDFKKIMNFKSPYTSYSTNAKKDPFPPPKDLLVQIFPEIDEYKRHDYEGLSQNSRDFLDLMEVLRERFLSNLPWIYKFFPNHDIFQDPIFGNSDFQSYFNDKTIHSKGSPILSFDILPGFNKIYKNKTNFYSLLIERPSQLTFASSHNPDTHPTQKQESEGPLQMSQLDTTQLNELLKQQSFEYVQFQTLSNFQILLSVFNKIFEKLEMKKSSRGYILHQLNLFKITLDERIKKSKIDDADKFIRDNQPIKKEENIVNEDGPNTSRRTKRPKQIRLLSIADSSDESSTEDSNVFKKDGESIEDGAYGENEDENDSEMQEQLKSMINELINSKISTFLRDQMDQFELKINALLDKILEEKVTRIIEQKLGSHTGKFSTLKRPQLYMTEEHNVGFDMEVPKKLRTSGKYAETVKDNDDHQAMSTTASPSPEQDQEAKSYTDEQEFMLDKSIDSIEGIILEWFTPNAKYANQCVHSMNKSGNKSWRANCEALYKERKSIVEFYIYLVNHESLDRYKAVDICEKLRDQNEGSFSRLAKFLRKWRHDHQNSFDGLLVYLSN
B2: CEN3 DNA (147 bp CEN3) (dsDNA)
DNA 1: ATCAAATAGTACAAATAAGTCACATGATGATATTTGATTTTATTATATTTTTAAAAAAAGTAAAAAATAAAAAGTAGTTTATTTTTAAAAAATAAAATTTAAAATATTAGTGTATTTGATTTCCGAAAGTTAAAAAAGAAATAGTAAGAAGAT
DNA 2: ATCTTCTTACTATTTCTTTTTTAACTTTCGGAAATCAAATACACTAATATTTTAAATTTTATTTTTTAAAAATAAACTACTTTTTATTTTTTACTTTTTTTAAAAATATAATAAAATCAAATATCATCATGTGACTTATTTGTACTATTTGAT

Legend:
cryo-EM structure = target: the molecule itself; assay: cryo-EM structure
Cep3;Ctf13;Skp1;Ndc10 = Cep3;Ctf13;Skp1;Ndc10 (Saccharomyces cerevisiae;Saccharomyces …, UniProt P40969;P35203;P52286;P32504 1-608;1-478;1-194;1-956, |||); assay: cryo-EM
Sequence of Cep3;Ctf13;Skp1;Ndc10 (P40969 whole entry, chain 1 of 3): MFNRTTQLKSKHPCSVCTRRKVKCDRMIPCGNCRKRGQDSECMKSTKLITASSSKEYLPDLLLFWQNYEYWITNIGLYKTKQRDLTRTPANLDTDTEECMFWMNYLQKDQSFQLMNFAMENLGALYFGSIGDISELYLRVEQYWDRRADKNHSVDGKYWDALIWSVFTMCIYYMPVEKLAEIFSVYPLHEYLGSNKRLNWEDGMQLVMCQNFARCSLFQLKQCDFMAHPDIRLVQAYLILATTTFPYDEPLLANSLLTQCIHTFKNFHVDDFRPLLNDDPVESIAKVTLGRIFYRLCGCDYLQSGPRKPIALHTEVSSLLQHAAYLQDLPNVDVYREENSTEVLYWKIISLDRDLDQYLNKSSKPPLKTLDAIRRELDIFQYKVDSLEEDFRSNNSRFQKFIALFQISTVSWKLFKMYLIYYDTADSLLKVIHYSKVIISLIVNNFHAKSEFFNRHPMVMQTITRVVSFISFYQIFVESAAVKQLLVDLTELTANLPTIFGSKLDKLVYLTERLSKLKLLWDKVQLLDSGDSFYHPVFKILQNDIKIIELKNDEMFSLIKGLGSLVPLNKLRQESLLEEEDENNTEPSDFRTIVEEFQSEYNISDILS
Sequence of Cep3;Ctf13;Skp1;Ndc10 (P35203 whole entry, chain 2 of 3): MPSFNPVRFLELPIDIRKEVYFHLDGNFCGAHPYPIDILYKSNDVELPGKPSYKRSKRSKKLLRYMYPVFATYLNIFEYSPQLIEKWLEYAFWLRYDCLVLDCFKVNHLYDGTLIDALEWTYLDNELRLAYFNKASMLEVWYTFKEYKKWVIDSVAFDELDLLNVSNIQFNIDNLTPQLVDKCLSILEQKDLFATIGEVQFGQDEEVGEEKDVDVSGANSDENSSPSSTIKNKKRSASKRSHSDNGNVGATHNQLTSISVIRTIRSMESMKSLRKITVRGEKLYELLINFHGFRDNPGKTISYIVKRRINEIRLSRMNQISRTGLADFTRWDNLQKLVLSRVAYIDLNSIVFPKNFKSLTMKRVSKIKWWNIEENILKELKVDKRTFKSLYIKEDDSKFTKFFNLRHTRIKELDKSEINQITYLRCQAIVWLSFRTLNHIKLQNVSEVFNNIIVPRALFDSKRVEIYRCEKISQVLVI
Sequence of Cep3;Ctf13;Skp1;Ndc10 (P52286 whole entry, chain 3 of 3): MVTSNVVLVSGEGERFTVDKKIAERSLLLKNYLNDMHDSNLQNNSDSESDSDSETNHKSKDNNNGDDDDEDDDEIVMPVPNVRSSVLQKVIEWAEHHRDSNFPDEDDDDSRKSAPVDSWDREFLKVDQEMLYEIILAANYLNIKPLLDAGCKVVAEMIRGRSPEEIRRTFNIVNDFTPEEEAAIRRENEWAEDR

Binder	binding result (cryo-EM structure)	binding result (Cep3;Ctf13;Skp1;Ndc10)
B1	binds	
B2		binds
